Measured values published in patent US20140057284A1, “PHOTOLUMINESCENT MOLECULAR COMPLEX AND METHOD FOR DETERMINING OF THE CONCENTRATION OF SAID MOLECULAR COMPLEX” (priority 2011, published 2014).

Experiments:
Experiment in all cases: biochemical
Settings in all cases: read-out: Percentages of residual activities of the kinase reaction
Aurora A = Aurora A (Homo sapiens, UniProt O14965)
Experimental: (§1) Selectivity testing (Table 2) was performed on the commercial basis at the Division of Signal Transduction Therapy, University of Dundee. ATP concentrations that were used in testing were close to the Km value of the kinase.

BRSK2 = BRSK2 (Homo sapiens, UniProt Q8IWQ3)
Chain of BRSK2 (Q8IWQ3 whole entry, species assumed): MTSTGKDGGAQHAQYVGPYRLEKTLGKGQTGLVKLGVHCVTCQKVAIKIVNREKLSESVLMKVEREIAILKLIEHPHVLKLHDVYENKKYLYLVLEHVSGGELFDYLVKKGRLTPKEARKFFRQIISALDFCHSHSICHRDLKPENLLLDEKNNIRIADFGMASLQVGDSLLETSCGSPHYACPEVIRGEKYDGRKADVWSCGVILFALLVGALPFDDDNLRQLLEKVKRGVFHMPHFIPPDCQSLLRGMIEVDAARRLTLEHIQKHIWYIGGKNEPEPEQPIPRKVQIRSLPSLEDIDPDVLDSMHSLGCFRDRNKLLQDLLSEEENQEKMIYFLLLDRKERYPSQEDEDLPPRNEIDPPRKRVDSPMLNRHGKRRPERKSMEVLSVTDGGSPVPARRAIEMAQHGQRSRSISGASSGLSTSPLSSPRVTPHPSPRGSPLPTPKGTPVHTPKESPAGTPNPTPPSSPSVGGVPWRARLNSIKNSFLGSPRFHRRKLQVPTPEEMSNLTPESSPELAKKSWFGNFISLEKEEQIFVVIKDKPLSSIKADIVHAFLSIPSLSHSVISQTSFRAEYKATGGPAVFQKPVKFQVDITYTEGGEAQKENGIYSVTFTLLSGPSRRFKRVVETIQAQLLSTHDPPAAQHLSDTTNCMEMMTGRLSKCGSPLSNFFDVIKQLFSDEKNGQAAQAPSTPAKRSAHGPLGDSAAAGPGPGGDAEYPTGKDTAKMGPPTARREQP
Experimental: as §1

BTK = BTK (Homo sapiens, UniProt Q06187)
Experimental: as §1

CAMK1 = CAMK1 (Homo sapiens, UniProt Q14012)
Experimental: as §1

CHK1 = CHK1 (Homo sapiens, UniProt O14757)
Experimental: as §1

CHK2 = CHK2 (Homo sapiens, UniProt O96017)
Experimental: as §1

CSK = CSK (Homo sapiens, UniProt P41240)
Chain of CSK (P41240 whole entry, species assumed): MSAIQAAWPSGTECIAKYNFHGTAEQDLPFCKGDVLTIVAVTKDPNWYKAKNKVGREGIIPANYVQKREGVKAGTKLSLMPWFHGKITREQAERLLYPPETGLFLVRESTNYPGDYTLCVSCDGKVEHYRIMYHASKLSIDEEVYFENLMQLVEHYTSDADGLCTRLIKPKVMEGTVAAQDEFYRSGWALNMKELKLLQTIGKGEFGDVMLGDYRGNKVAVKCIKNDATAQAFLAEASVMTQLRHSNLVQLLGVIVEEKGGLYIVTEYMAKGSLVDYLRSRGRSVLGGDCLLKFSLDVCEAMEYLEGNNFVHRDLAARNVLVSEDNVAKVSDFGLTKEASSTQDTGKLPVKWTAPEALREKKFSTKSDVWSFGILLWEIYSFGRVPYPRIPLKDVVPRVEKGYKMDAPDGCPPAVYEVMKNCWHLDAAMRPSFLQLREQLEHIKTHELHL
Experimental: as §1

DYRK2 = DYRK2 (Homo sapiens, UniProt Q92630)
Experimental: as §1

DYRK3 = DYRK3 (Homo sapiens, UniProt O43781)
Experimental: as §1

EPH-A4 = EPH-A4 (Homo sapiens, UniProt P54764)
Experimental: as §1

ERK8 = ERK8 (Homo sapiens, UniProt Q8TD08)
Experimental: as §1

GCK = GCK (Homo sapiens, UniProt Q12851)
Chain of GCK (Q12851 whole entry): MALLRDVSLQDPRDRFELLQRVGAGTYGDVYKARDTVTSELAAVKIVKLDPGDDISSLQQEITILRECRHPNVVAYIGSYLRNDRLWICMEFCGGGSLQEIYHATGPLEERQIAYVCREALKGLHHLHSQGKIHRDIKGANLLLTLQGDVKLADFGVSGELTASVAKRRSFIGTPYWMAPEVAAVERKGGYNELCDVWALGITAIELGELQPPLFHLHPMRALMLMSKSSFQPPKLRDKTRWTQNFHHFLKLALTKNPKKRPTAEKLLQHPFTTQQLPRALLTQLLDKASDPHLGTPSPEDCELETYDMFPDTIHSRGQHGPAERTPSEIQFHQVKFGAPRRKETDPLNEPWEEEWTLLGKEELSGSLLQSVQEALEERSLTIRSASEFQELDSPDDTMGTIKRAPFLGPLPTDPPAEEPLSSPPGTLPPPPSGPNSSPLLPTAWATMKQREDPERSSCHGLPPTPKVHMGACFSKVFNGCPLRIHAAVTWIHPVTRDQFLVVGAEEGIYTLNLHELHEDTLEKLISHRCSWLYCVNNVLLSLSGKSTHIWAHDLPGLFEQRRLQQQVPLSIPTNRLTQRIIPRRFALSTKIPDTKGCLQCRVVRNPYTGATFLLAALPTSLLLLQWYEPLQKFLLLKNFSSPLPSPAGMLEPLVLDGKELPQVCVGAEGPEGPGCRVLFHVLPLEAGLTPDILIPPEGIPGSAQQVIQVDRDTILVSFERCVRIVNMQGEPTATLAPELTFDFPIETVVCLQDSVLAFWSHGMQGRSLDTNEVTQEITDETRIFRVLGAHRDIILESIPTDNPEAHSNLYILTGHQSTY
Experimental: as §1

HIPK2 = HIPK2 (Homo sapiens, UniProt Q9H2X6)
Experimental: as §1

IKKe = IKKe (Homo sapiens, UniProt Q14164)
Experimental: as §1

IRAK4 = IRAK4 (Homo sapiens, UniProt Q9NWZ3)
Chain of IRAK4 (Q9NWZ3 whole entry, species assumed): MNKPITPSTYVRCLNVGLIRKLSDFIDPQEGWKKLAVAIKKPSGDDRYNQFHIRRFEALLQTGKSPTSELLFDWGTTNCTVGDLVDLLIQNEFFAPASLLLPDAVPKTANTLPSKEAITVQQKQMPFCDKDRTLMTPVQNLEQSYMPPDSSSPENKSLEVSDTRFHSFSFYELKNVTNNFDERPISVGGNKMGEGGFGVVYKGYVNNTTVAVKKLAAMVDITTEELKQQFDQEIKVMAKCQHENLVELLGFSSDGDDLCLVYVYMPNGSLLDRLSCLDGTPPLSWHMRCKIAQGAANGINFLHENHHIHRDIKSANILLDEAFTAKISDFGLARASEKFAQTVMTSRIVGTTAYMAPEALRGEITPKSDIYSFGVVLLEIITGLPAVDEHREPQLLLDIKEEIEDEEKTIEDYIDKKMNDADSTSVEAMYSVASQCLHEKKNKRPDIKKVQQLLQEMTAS
Experimental: as §1

MAPKAP-K3 = MAPKAP-K3 (Homo sapiens, UniProt Q16644)
Chain of MAPKAP-K3 (Q16644 whole entry, species assumed): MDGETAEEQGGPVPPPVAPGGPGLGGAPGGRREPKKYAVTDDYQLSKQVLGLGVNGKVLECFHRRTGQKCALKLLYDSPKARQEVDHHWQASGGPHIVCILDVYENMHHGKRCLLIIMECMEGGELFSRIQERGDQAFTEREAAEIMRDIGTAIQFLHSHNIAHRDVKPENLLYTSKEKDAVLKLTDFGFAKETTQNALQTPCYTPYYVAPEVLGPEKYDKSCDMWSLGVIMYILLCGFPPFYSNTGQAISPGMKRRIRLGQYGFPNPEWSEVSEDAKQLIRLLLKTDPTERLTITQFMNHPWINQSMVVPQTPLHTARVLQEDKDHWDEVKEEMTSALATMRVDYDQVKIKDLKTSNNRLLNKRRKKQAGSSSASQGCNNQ
Experimental: as §1

MARK2 = MARK2 (Homo sapiens, UniProt Q7KZI7)
Experimental: as §1

MARK4 = MARK4 (Homo sapiens, UniProt Q96L34)
Experimental: as §1

MKK1 = MKK1 (Homo sapiens, UniProt Q02750)
Experimental: as §1

MLK3 = MLK3 (Homo sapiens, UniProt Q16584)
Experimental: as §1

MPSK1 = MPSK1 (Homo sapiens, UniProt O75716)
Experimental: as §1

MSK1 = MSK1 (Homo sapiens, UniProt O75582)
Experimental: as §1

MST2 = MST2 (Homo sapiens, UniProt Q13188)
Experimental: as §1

NEK6 = NEK6 (Homo sapiens, UniProt Q9HC98)
Experimental: as §1

PAK2 = PAK2 (Homo sapiens, UniProt Q13177)
Chain of PAK2 (Q13177 whole entry, species assumed): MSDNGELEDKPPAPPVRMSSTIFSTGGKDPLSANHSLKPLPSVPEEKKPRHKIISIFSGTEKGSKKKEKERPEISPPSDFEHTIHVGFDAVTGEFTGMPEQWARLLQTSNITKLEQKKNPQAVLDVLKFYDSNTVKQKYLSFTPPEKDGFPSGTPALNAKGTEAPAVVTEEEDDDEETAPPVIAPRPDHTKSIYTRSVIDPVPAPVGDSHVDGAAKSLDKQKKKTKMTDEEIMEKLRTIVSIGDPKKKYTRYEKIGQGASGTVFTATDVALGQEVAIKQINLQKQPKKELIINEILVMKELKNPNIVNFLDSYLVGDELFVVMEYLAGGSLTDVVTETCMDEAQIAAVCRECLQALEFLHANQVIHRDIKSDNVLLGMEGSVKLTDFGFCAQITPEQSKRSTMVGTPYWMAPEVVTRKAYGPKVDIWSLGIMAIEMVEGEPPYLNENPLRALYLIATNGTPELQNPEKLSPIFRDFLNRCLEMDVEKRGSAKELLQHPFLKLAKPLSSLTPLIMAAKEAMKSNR
Experimental: as §1

PAK4 = PAK4 (Homo sapiens, UniProt O96013)
Experimental: as §1

PAK6 = PAK6 (Homo sapiens, UniProt Q9NQU5)
Experimental: as §1

PKA = PKA (Homo sapiens, UniProt P17612)
Experimental: as §1

PKCa = PKCa (Homo sapiens, UniProt P17252)
Experimental: as §1

PRK2 = PRK2 (Homo sapiens, UniProt Q16513)
Chain of PRK2 (Q16513 whole entry, species assumed): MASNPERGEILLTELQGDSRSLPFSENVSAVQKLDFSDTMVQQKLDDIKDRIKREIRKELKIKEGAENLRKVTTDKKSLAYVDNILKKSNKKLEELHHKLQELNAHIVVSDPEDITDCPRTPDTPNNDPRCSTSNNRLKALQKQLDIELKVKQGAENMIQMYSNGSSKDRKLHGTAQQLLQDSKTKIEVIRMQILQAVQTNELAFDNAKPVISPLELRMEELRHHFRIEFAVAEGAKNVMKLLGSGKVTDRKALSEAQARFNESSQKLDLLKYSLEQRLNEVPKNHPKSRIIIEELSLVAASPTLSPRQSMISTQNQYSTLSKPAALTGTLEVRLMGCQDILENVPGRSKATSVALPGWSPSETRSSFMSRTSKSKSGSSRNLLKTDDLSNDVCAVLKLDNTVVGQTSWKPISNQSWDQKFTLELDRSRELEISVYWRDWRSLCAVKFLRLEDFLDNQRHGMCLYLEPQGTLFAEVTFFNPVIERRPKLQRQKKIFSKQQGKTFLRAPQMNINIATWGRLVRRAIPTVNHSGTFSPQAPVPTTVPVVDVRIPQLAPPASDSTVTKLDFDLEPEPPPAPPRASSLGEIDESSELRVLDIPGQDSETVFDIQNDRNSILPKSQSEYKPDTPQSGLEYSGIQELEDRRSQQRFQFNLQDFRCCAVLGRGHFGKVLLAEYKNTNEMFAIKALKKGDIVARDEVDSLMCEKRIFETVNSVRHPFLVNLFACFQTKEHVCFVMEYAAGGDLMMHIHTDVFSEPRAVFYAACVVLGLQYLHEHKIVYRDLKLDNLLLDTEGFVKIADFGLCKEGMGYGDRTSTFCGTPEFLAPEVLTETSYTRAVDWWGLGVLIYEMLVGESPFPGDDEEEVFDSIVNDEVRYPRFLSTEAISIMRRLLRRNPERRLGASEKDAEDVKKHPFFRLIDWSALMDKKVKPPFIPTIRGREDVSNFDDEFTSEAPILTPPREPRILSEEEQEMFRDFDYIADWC
Experimental: as §1

RIPK2 = RIPK2 (Homo sapiens, UniProt O43353)
Experimental: as §1

ROCK 2 = ROCK 2 (Homo sapiens, UniProt O75116)
Experimental: as §1

RSK1 = RSK1 (Homo sapiens, UniProt Q15418)
Experimental: as §1

SRPK1 = SRPK1 (Homo sapiens, UniProt Q96SB4)
Experimental: as §1

Src = Src (Homo sapiens, UniProt P12931)
Experimental: as §1

TAK1 = TAK1 (Homo sapiens, UniProt O43318)
Experimental: as §1

TIE2 = TIE2 (Homo sapiens, UniProt Q02763)
Experimental: as §1

TTK = TTK (Homo sapiens, UniProt P33981)
Experimental: as §1

TrkA = TrkA (Homo sapiens, UniProt P04629)
Experimental: as §1

VEG-FR = VEG-FR (Homo sapiens, UniProt P17948)
Chain of VEG-FR (P17948 784-1338 limits assumed): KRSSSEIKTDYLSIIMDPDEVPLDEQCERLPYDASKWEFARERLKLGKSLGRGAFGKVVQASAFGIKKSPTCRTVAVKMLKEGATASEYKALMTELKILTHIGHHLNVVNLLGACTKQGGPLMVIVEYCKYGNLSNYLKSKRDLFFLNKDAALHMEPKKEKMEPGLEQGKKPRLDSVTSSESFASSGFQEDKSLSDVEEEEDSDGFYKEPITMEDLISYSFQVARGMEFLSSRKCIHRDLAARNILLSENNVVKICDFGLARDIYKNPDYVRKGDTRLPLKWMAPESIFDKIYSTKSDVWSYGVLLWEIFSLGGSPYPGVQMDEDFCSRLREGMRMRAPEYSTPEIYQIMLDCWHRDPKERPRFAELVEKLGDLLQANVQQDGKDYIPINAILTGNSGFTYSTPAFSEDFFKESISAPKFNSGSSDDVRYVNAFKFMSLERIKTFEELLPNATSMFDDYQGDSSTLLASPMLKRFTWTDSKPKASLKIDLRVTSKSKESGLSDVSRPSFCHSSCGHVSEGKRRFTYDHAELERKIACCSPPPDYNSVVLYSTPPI
Experimental: as §1

ZAP70 = ZAP70 (Homo sapiens, UniProt P43403)
Experimental: as §1

`CN(C)c1ccc2c(c1)Oc1cc(N(C)C)ccc1C21OC(=O)c2cc(C(=O)NCCCC[C@@H](NC(=O)[C@@H](CCCNC(=N)N)NC(=O)[C@@H](CCCNC(=N)N)NC(=O)[C@@H](CCCNC(=N)N)NC(=O)[C@@H](CCCNC(=N)N)NC(=O)[C@@H](CCCNC(=N)N)NC(=O)[C@@H](CCCNC(=N)N)NC(=O)CCCCCNC(=O)[C@@H](CCCNC(=N)N)NC(=O)CCCCCNC(=O)c3ccc(-c4ccnc(N)n4)s3)C(N)=O)ccc21` [ARC-669] showed a remaining activity at 1 µM (Aurora A) of 86%, a remaining activity at 1 µM (BRSK2) of 77% and a remaining activity at 1 µM (BTK) of 36%. The remaining activity at 1 µM (CAMK1) was 3%, the remaining activity at 1 µM (CHK1) was 29% and the remaining activity at 1 µM (CHK2) was 28%. It also gave a remaining activity at 1 µM (CSK) of 51%, a remaining activity at 1 µM (DYRK2) of 65% and a remaining activity at 1 µM (DYRK3) of 18%. The remaining activity at 1 µM (EPH-A4) was 76%, the remaining activity at 1 µM (ERK8) was 23% and the remaining activity at 1 µM (GCK) was 10%. For the same compound, the remaining activity at 1 µM (HIPK2) was 63%, the remaining activity at 1 µM (IKKe) was 37% and the remaining activity at 1 µM (IRAK4) was 82%. For the same compound, the remaining activity at 1 µM (MAPKAP-K3) was 31%, the remaining activity at 1 µM (MARK2) was 77% and the remaining activity at 1 µM (MARK4) was 86%. For the same compound, the remaining activity at 1 µM (MKK1) was 69%, the remaining activity at 1 µM (MLK3) was 70% and the remaining activity at 1 µM (MPSK1) was 97%. The remaining activity at 1 µM (MSK1) was 3%, the remaining activity at 1 µM (MST2) was 94% and the remaining activity at 1 µM (NEK6) was 71%. For the same compound, the remaining activity at 1 µM (PAK2) was 43%, the remaining activity at 1 µM (PAK4) was 32% and the remaining activity at 1 µM (PAK6) was 35%. The remaining activity at 1 µM (PKA) was 1%, the remaining activity at 1 µM (PKCa) was 15% and the remaining activity at 1 µM (PRK2) was 4%. The remaining activity at 1 µM (RIPK2) was 47%, the remaining activity at 1 µM (ROCK 2) was 10% and the remaining activity at 1 µM (RSK1) was 2%. The remaining activity at 1 µM (SRPK1) was 66%, the remaining activity at 1 µM (Src) was 106% and the remaining activity at 1 µM (TAK1) was 13%. The remaining activity at 1 µM (TIE2) was 86%, the remaining activity at 1 µM (TTK) was 66% and the remaining activity at 1 µM (TrkA) was 101%. For the same compound, the remaining activity at 1 µM (VEG-FR) was 25% and the remaining activity at 1 µM (ZAP70) was 82%.
